The text below walks through data of patent US20090214574A1.

Test [1] has as its target human CD16A-Fc^48R/158V fusion protein (human) (UniProt P08637). Briefly: SPR, BIAcore 2000, CD16A-Fc immobilized on CM5, koff/kon.
For test [2], the target named is CD16B-Fc^NA1 (human) (UniProt O75015). In words: SPR, BIAcore 2000, antigen immobilized, koff/kon. (In general: Surface plasmon resonance follows binding to a sensor surface in real time, without labels.)
The target in test [3] is CD16B-Fc^SH (human) (UniProt O75015). Briefly: SPR, BIAcore 2000, antigen immobilized, koff/kon.
Test [4] deals with human CD16A-Fc^48R/158F fusion protein (human) (UniProt P08637). Briefly: SPR, BIAcore 2000, antigen immobilized, koff/kon.
Test [5] deals with CD16B-Fc^NA2 (human) (UniProt O75015). In words: SPR, BIAcore 2000, antigen immobilized, koff/kon.
Test [6] addresses human CD16A-Fc^48R/158V fusion protein (human) (UniProt P08637). Briefly: SPR, BIAcore 2000, antigen immobilized, koff/kon.
In test [7] the target is native CD16A on human peripheral blood NK cells (human) (UniProt P08637). In words: cell-based or functional assay.
For test [8], the target named is human CD16A-Fc^48R/158V fusion protein (human) (UniProt P08637). In words: SPR, BIAcore 2000, CD16A-Fc immobilized on CM5, 1:1 Langmuir.
In test [9] the target is CD16B-Fc^NA1 (human) (UniProt O75015). Briefly: SPR, BIAcore 2000, antigen immobilized.
For test [10], the target named is CD16B-Fc^SH (human) (UniProt O75015). Briefly: SPR, BIAcore 2000, antigen immobilized.
Test [11] addresses human CD16A-Fc^48R/158F fusion protein (human) (UniProt P08637). Briefly: SPR, BIAcore 2000, antigen immobilized.
Test [12] deals with CD16B-Fc^NA2 (human) (UniProt O75015). Briefly: SPR, BIAcore 2000, antigen immobilized.
The target in test [13] is human CD16A-Fc^48R/158V fusion protein (human) (UniProt P08637). Briefly: SPR, BIAcore 2000, antigen immobilized.

Sequence of human CD16A-Fc^48R/158V fusion protein (human) (P08637 17-208 L66R/F176V limits assumed): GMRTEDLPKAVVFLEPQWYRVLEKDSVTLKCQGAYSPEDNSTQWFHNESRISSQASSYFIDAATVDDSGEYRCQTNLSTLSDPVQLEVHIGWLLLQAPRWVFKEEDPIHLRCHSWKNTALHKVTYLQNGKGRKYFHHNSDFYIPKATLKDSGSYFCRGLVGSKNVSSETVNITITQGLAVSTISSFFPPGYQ
Sequence of human CD16A-Fc^48R/158F fusion protein (human) (P08637 17-208): as the sequence (P08637 17-208 L66R/F176V limits assumed) above, with R50L, V160F counted along it
Sequence of CD16B-Fc^NA2 (human) (O75015 17-200 N65S): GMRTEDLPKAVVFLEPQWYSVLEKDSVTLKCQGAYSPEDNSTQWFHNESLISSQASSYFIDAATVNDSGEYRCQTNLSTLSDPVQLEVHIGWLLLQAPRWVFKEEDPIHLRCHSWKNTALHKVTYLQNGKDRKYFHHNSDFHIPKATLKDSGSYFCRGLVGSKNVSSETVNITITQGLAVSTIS
Sequence of CD16B-Fc^SH (human) (O75015 17-200 N65S/A78D): as the sequence (O75015 17-200 N65S) above, with A62D counted along it
Sequence of CD16B-Fc^NA1 (human) (O75015 other isoform, or with tags, fused parts or gaps): as the sequence (O75015 17-200 N65S) above, with S20R, S49N, N66D, I90V counted along it
Sequence of native CD16A on human peripheral blood NK cells (human) (P08637 17-254): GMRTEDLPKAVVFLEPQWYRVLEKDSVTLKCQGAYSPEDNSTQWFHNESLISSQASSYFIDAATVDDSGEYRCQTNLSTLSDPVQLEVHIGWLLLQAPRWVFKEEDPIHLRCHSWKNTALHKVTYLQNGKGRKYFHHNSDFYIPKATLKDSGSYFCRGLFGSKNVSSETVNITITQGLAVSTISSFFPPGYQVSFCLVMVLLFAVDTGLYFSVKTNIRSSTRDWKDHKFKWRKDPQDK

The Kd is the concentration at which binding is half-saturated. Lower therefore signals tighter binding. Usually koff stands for a measure of how fast the partners let go of each other. In general, kon refers to the second-order rate constant of association. A higher kon goes with fast association. As to anti-CD16 murine monoclonal antibody A9, the equilibrium dissociation constant (Kd) came out at 1.75 nM in test [1]; 8.91 nM in the test with CD16B-Fc^NA1 (human) [2]; 11.4 nM with CD16B-Fc^SH (human) [3]; 3.82 nM in test [4]; 9.63 nM in the test with CD16B-Fc^NA2 (human) [5]; 5.17 nM in [6]. The lysis of P815 targets by NK cells (calcein release), 1 µg/mL antibody in test [7] is 65%. For the same substance, the koff in test [8] came to 0.000177 s⁻¹; with CD16B-Fc^NA1 (human) [9], 0.000487 s⁻¹; in the test with CD16B-Fc^SH (human) [10], 0.000528 s⁻¹; in test [11], 0.00038 s⁻¹; in the test with CD16B-Fc^NA2 (human) [12], 0.000478 s⁻¹; in test [13], 0.000406 s⁻¹. Besides, the on-rate constant (kon) in test [8] amounted to 101000 M⁻¹ s⁻¹; in the test with CD16B-Fc^NA1 (human) [9], 77200 M⁻¹ s⁻¹; with CD16B-Fc^SH (human) [10], 77900 M⁻¹ s⁻¹; in test [11], 99400 M⁻¹ s⁻¹; in the test with CD16B-Fc^NA2 (human) [12], 75700 M⁻¹ s⁻¹; in test [13], 78600 M⁻¹ s⁻¹.
